T1: Paby-Hel308 (Pyrococcus abyssi, UniProt Q9V0A9 1-715)
T1 sequence: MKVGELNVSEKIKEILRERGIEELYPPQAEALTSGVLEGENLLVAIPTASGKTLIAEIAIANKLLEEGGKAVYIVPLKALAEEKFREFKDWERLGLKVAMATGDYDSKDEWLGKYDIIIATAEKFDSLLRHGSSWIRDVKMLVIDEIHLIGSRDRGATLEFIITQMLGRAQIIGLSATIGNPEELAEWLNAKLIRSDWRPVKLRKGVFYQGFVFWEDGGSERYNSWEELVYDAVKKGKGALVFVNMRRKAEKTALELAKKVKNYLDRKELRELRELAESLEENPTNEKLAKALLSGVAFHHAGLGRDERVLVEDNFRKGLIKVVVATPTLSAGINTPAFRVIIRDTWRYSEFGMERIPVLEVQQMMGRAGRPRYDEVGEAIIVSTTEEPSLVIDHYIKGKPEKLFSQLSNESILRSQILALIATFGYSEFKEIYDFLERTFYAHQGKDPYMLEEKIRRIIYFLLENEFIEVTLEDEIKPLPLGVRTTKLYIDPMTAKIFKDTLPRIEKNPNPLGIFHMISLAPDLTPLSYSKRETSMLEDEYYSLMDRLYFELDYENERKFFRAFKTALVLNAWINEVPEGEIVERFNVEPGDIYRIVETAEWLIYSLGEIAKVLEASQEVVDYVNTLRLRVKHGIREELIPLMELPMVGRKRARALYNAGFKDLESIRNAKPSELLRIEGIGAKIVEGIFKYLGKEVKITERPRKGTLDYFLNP

T2: Tbar-aLhr2-ΔDom4 (Thermococcus barophilus, UniProt F0LJX3 1-513)
T2 sequence: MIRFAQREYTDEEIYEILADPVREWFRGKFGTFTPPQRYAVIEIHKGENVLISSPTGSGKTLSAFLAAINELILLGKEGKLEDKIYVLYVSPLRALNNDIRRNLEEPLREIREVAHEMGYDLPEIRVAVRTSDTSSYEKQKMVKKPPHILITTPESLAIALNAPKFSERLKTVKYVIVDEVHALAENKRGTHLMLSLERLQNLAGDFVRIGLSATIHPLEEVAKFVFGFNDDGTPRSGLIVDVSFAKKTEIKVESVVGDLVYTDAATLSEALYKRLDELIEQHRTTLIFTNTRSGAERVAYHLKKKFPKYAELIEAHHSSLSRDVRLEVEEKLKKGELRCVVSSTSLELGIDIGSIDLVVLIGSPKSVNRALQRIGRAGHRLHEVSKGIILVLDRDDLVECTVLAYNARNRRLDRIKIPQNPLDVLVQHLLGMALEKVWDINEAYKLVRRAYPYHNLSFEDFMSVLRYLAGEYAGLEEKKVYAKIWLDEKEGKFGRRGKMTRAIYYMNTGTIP

T3: Tbar-aLhr2 WT (Thermococcus barophilus, UniProt F0LJX3 1-863)
T3 sequence: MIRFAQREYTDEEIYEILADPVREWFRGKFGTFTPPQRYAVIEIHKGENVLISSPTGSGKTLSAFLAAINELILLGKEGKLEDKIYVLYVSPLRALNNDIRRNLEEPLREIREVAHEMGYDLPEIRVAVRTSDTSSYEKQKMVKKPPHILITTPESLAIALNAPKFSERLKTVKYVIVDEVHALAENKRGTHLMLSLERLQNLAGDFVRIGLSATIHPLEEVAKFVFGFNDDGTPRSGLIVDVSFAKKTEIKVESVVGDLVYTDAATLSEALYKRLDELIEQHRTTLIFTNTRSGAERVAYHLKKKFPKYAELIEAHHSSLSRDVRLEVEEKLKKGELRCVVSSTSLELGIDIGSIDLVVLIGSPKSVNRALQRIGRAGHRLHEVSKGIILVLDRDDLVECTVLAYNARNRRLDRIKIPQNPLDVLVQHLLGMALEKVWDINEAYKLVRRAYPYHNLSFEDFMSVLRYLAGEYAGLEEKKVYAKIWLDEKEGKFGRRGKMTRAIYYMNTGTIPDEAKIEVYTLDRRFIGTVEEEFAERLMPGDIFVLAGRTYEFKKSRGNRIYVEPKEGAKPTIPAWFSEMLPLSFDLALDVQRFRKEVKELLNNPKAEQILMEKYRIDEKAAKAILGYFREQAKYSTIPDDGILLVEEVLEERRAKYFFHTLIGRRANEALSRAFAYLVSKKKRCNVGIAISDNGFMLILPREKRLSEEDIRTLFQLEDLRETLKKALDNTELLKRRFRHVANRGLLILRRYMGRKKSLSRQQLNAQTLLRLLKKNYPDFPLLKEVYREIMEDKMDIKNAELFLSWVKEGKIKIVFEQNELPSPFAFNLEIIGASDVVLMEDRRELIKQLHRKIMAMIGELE

T4: Tbar-aLhr2-Dom4 (Thermococcus barophilus, UniProt F0LJX3 514-863)
T4 sequence: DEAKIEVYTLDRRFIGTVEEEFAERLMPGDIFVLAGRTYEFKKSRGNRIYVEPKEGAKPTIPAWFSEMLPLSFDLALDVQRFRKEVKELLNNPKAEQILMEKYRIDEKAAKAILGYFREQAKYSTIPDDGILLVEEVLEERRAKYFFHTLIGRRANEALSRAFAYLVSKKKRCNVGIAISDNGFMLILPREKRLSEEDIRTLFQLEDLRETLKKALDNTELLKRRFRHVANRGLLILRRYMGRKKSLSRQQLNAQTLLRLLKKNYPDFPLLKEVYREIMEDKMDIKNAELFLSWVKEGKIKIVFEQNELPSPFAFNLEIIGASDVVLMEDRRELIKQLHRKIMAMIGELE

B1: 3'RNA50:RNA26 (dsRNA)
RNA 1: AUCGAUAGUCUCUAGACAGCAUGUCCUAGCAAGCCAGAAUUCGGCAGCGU
RNA 2: GGACAUGCUGUCUAGAGACUAUCGAU
B2: 3'DNA59:DNA31 (dsDNA)
DNA 1: GACGCTGCCGAATTCTACCAGTGCCTTGCTAGGACATCTTTGCCCACCTGCAGGTTCAC
DNA 2: TAGCAAGGCACTGGTAGAATTCGGCAGCGTC

What was measured:
Experiment in all cases: filter binding; 5 mM Mg2+; 25 mM Tris-HCl pH 8, 50 mM NaAc, 5 mM MgCl2, 2.5 mM beta-mercaptoethanol; protein preincubated 10 min 65 C, binding 15 min 30 C; 0.5 nM substrate (Methods); Resu
Paby-Hel308 = biological target: T1, Paby-Hel308; conditions: protein: recombinant, tags: untagged
Tbar-aLhr2-ΔDom4 = biological target: T2, Tbar-aLhr2-ΔDom4; conditions: protein: recombinant; tags: untagged; label: 5'-32P; single strand
Tbar-aLhr2 WT = biological target: T3, Tbar-aLhr2 WT; conditions: protein: recombinant, tags: untagged, chain copies: 4
Tbar-aLhr2-Dom4 = biological target: T4, Tbar-aLhr2-Dom4; conditions: protein: recombinant; tags: untagged; label: 5'-32P; single strand
[1] = label: 5'-32P on DNA31, 3' overhang 28 nt

Binder | Kd (Paby-Hel308; label: 5'-32P, single strand) | Kd (Tbar-aLhr2-ΔDom4) | Kd (Tbar-aLhr2 WT; label: 5'-32P, single strand) | Kd (Tbar-aLhr2-Dom4) | Kd (Tbar-aLhr2 WT; label: 5'-32P on RNA26, 3' overhang 24 nt) | Kd (Paby-Hel308; [1]) | Kd (Tbar-aLhr2 WT; [1])
ATCGATAGTCTCTAGACAGCATGTCCTAGCAAGCCAGAATTCGGCAGCGT (ssDNA) [DNA50] | 32 ± 2 nM | 54 ± 1 nM | 39 ± 1 nM | 162 ± 5 nM | – | – | –
GGACATGCTGTCTAGAGACTATCGAT (ssDNA) [DNA26] | – | 211 ± 9 nM | 58 ± 2 nM | 277 ± 16 nM | – | – | –
AUCGAUAGUCUCUAGACAGCAUGUCCUAGCAAGCCAGAAUUCGGCAGCGU (ssRNA) [RNA50] | 38 ± 1 nM | 69 ± 1 nM | 41 ± 1 nM | 161 ± 5 nM | – | – | –
B1 | – | – | – | – | 39 ± 2 nM | – | –
B2 | – | – | – | – | – | 23 ± 1 nM | 41 ± 2 nM
ACGCUGCCGAAUUCUGGCUUGCUAGG (ssRNA) [RNA26] | – | 150 ± 1 nM | 80 ± 2 nM | 241 ± 17 nM | – | – | –

— article PMC8301817, “Phylogenetic Diversity of Lhr Proteins and Biochemical Activities of the Thermococcales aLhr2 DNA/RNA Helicase”
